# Test results: PMC6368398
# How the values were obtained:
# [1] = molecular target: RPA-wt (RPA70-RPA32-RPA14 heterotrimer) (Saccharomyces cerevisiae, UniProt P22336;P26754;P26755 1-621;1-273;1-122); test: FRET
# scRad52 = scRad52 (Saccharomyces cerevisiae, UniProt P06778 1-471); test: FRET
# Chain of scRad52 (P06778 whole entry): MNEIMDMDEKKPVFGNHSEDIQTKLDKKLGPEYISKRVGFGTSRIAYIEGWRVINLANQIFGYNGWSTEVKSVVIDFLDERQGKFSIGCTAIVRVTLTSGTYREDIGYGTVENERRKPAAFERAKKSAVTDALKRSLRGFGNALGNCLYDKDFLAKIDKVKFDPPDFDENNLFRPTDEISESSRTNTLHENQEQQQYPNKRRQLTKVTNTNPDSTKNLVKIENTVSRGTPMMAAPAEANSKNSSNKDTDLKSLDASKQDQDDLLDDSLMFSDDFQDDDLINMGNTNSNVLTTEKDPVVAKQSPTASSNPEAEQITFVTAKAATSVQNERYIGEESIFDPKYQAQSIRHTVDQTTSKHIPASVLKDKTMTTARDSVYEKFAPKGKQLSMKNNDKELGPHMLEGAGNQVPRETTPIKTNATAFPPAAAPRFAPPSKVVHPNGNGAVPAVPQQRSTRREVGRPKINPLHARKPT
# Chain of RPA-wt (RPA70-RPA32-RPA14 heterotrimer) (P22336 whole entry, chain 1 of 3): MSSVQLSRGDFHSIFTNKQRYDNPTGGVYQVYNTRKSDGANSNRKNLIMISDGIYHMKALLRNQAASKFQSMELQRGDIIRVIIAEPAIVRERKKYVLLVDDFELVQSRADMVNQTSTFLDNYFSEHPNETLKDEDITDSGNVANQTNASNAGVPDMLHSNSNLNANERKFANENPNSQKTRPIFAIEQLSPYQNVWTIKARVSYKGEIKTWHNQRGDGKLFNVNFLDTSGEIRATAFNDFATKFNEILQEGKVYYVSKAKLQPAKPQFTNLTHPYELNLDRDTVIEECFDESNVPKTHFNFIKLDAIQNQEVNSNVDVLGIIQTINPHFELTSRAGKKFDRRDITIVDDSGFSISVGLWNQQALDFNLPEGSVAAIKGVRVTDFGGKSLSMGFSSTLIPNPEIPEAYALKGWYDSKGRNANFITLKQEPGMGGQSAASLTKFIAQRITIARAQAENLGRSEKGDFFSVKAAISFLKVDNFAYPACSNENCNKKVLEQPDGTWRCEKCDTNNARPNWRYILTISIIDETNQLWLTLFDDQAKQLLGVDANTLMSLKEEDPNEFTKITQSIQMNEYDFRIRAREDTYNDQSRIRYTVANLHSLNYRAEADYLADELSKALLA
# Chain of RPA-wt (RPA70-RPA32-RPA14 heterotrimer) (P26754 whole entry, chain 2 of 3): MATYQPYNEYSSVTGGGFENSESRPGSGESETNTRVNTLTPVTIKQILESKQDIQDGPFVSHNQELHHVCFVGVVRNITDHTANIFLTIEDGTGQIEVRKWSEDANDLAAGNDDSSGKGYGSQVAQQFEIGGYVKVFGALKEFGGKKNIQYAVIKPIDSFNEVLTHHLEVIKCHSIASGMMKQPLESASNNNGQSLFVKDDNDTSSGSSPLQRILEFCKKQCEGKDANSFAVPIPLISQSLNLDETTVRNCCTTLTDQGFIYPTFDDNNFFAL
# Chain of RPA-wt (RPA70-RPA32-RPA14 heterotrimer) (P26755 whole entry, chain 3 of 3): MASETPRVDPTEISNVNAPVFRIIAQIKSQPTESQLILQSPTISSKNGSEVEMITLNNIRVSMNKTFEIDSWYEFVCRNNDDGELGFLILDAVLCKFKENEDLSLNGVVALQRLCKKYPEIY
binder,measurement,setting,value
TTTTTTTTTTTTTTTTTTTTTTTTTTTTTT (ssDNA) [Cy3-dT30-Cy5],binding result,[1],binds
same,binding result,scRad52,binds
